US20220010021A1 (Sanofi, published 2022)

T1: human beta-Klotho (KLB) (human, UniProt Q86Z14 53-997)
T1 construct: also called human KLB
T1 sequence (looked up): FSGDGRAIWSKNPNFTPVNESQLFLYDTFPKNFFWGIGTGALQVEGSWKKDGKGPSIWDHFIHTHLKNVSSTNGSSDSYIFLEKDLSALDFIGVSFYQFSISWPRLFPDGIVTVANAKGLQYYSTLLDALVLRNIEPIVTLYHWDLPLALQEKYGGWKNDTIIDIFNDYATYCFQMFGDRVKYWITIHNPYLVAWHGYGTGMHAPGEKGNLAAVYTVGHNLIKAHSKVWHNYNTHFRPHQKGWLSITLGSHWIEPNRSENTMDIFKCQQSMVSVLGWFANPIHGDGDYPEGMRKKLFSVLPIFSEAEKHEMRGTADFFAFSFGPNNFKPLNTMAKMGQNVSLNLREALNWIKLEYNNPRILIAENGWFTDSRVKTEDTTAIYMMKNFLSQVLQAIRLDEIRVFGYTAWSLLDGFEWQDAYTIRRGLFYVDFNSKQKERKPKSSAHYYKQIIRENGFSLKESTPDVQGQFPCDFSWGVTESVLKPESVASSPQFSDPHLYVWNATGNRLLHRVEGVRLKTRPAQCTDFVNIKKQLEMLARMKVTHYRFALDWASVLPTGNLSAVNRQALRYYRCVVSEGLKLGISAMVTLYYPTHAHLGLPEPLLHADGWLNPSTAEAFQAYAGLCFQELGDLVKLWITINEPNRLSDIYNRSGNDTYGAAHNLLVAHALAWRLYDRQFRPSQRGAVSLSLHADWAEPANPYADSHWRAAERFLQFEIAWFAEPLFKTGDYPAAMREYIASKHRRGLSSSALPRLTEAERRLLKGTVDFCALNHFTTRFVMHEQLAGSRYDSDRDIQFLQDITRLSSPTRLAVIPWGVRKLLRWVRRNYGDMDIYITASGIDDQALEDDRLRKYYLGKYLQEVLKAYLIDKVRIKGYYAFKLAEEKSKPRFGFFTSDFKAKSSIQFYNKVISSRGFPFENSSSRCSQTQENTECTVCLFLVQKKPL

B1: 16H7 variant, light chain D52R (antibody, human IgG4 S228P, lambda, V domains shown)
VH: not shown
VL: SYVLTQPPSVSVAPGQTARITCGGNNIGSESVHWYQQKPGQAPVLVVYDDSRRPSGIPERFSGSNSGNTATLTISRVEAGDEADYYCQVWDGNSDHVVFGGGTKLTVLG
notes: IgG4 backbone
B2: 16H7 variant, light chain G24A (antibody, human IgG4 S228P, lambda, V domains shown)
VH: not shown
VL: SYVLTQPPSVSVAPGQTARITCGANNIGSESVHWYQQKPGQAPVLVVYDDSDRPSGIPERFSGSNSGNTATLTISRVEAGDEADYYCQVWDGNSDHVVFGGGTKLTVLG
notes: IgG4 backbone
B3: 16H7 variant, light chain G23K (antibody, human IgG4 S228P, lambda, V domains shown)
VH: not shown
VL: SYVLTQPPSVSVAPGQTARITCKGNNIGSESVHWYQQKPGQAPVLVVYDDSDRPSGIPERFSGSNSGNTATLTISRVEAGDEADYYCQVWDGNSDHVVFGGGTKLTVLG
notes: IgG4 backbone
B4: 16H7 variant, light chain G23D (antibody, human IgG4 S228P, lambda, V domains shown)
VH: not shown
VL: SYVLTQPPSVSVAPGQTARITCDGNNIGSESVHWYQQKPGQAPVLVVYDDSDRPSGIPERFSGSNSGNTATLTISRVEAGDEADYYCQVWDGNSDHVVFGGGTKLTVLG
notes: IgG4 backbone
B5: 16H7 variant, light chain G23A (antibody, human IgG4 S228P, lambda, V domains shown)
VH: not shown
VL: SYVLTQPPSVSVAPGQTARITCAGNNIGSESVHWYQQKPGQAPVLVVYDDSDRPSGIPERFSGSNSGNTATLTISRVEAGDEADYYCQVWDGNSDHVVFGGGTKLTVLG
notes: IgG4 backbone
B6: 16H7 variant, light chain G23H (antibody, human IgG4 S228P, lambda, V domains shown)
VH: not shown
VL: SYVLTQPPSVSVAPGQTARITCHGNNIGSESVHWYQQKPGQAPVLVVYDDSDRPSGIPERFSGSNSGNTATLTISRVEAGDEADYYCQVWDGNSDHVVFGGGTKLTVLG
notes: IgG4 backbone
B7: 16H7 variant, light chain G23C (antibody, human IgG4 S228P, lambda, V domains shown)
VH: not shown
VL: SYVLTQPPSVSVAPGQTARITCCGNNIGSESVHWYQQKPGQAPVLVVYDDSDRPSGIPERFSGSNSGNTATLTISRVEAGDEADYYCQVWDGNSDHVVFGGGTKLTVLG
notes: IgG4 backbone
B8: 16H7 variant, light chain G23S (antibody, human IgG4 S228P, lambda, V domains shown)
VH: not shown
VL: SYVLTQPPSVSVAPGQTARITCSGNNIGSESVHWYQQKPGQAPVLVVYDDSDRPSGIPERFSGSNSGNTATLTISRVEAGDEADYYCQVWDGNSDHVVFGGGTKLTVLG
notes: IgG4 backbone
B9: 16H7 variant, light chain D52V (antibody, human IgG4 S228P, lambda, V domains shown)
VH: not shown
VL: SYVLTQPPSVSVAPGQTARITCGGNNIGSESVHWYQQKPGQAPVLVVYDDSVRPSGIPERFSGSNSGNTATLTISRVEAGDEADYYCQVWDGNSDHVVFGGGTKLTVLG
notes: IgG4 backbone
B10: 16H7 variant, light chain G23R (antibody, human IgG4 S228P, lambda, V domains shown)
VH: not shown
VL: SYVLTQPPSVSVAPGQTARITCRGNNIGSESVHWYQQKPGQAPVLVVYDDSDRPSGIPERFSGSNSGNTATLTISRVEAGDEADYYCQVWDGNSDHVVFGGGTKLTVLG
notes: IgG4 backbone
B11: 16H7 variant, light chain G23T (antibody, human IgG4 S228P, lambda, V domains shown)
VH: not shown
VL: SYVLTQPPSVSVAPGQTARITCTGNNIGSESVHWYQQKPGQAPVLVVYDDSDRPSGIPERFSGSNSGNTATLTISRVEAGDEADYYCQVWDGNSDHVVFGGGTKLTVLG
notes: IgG4 backbone
B12: 16H7 variant, light chain G24E (antibody, human IgG4 S228P, lambda, V domains shown)
VH: not shown
VL: SYVLTQPPSVSVAPGQTARITCGENNIGSESVHWYQQKPGQAPVLVVYDDSDRPSGIPERFSGSNSGNTATLTISRVEAGDEADYYCQVWDGNSDHVVFGGGTKLTVLG
notes: IgG4 backbone
B13: 16H7 variant, light chain G23M (antibody, human IgG4 S228P, lambda, V domains shown)
VH: not shown
VL: SYVLTQPPSVSVAPGQTARITCMGNNIGSESVHWYQQKPGQAPVLVVYDDSDRPSGIPERFSGSNSGNTATLTISRVEAGDEADYYCQVWDGNSDHVVFGGGTKLTVLG
notes: IgG4 backbone
B14: 16H7 variant, light chain G23F (antibody, human IgG4 S228P, lambda, V domains shown)
VH: not shown
VL: SYVLTQPPSVSVAPGQTARITCFGNNIGSESVHWYQQKPGQAPVLVVYDDSDRPSGIPERFSGSNSGNTATLTISRVEAGDEADYYCQVWDGNSDHVVFGGGTKLTVLG
notes: IgG4 backbone
B15: 16H7 variant, light chain G24F (antibody, human IgG4 S228P, lambda, V domains shown)
VH: not shown
VL: SYVLTQPPSVSVAPGQTARITCGFNNIGSESVHWYQQKPGQAPVLVVYDDSDRPSGIPERFSGSNSGNTATLTISRVEAGDEADYYCQVWDGNSDHVVFGGGTKLTVLG
notes: IgG4 backbone
B16: 16H7 variant, light chain D52T (antibody, human IgG4 S228P, lambda, V domains shown)
VH: not shown
VL: SYVLTQPPSVSVAPGQTARITCGGNNIGSESVHWYQQKPGQAPVLVVYDDSTRPSGIPERFSGSNSGNTATLTISRVEAGDEADYYCQVWDGNSDHVVFGGGTKLTVLG
notes: IgG4 backbone
B17: 16H7 variant, light chain G23V (antibody, human IgG4 S228P, lambda, V domains shown)
VH: not shown
VL: SYVLTQPPSVSVAPGQTARITCVGNNIGSESVHWYQQKPGQAPVLVVYDDSDRPSGIPERFSGSNSGNTATLTISRVEAGDEADYYCQVWDGNSDHVVFGGGTKLTVLG
notes: IgG4 backbone
B18: 16H7 variant, light chain G23P (antibody, human IgG4 S228P, lambda, V domains shown)
VH: not shown
VL: SYVLTQPPSVSVAPGQTARITCPGNNIGSESVHWYQQKPGQAPVLVVYDDSDRPSGIPERFSGSNSGNTATLTISRVEAGDEADYYCQVWDGNSDHVVFGGGTKLTVLG
notes: IgG4 backbone
B19: 16H7 variant, light chain G23N (antibody, human IgG4 S228P, lambda, V domains shown)
VH: not shown
VL: SYVLTQPPSVSVAPGQTARITCNGNNIGSESVHWYQQKPGQAPVLVVYDDSDRPSGIPERFSGSNSGNTATLTISRVEAGDEADYYCQVWDGNSDHVVFGGGTKLTVLG
notes: IgG4 backbone
B20: 16H7 variant, light chain G24C (antibody, human IgG4 S228P, lambda, V domains shown)
VH: not shown
VL: SYVLTQPPSVSVAPGQTARITCGCNNIGSESVHWYQQKPGQAPVLVVYDDSDRPSGIPERFSGSNSGNTATLTISRVEAGDEADYYCQVWDGNSDHVVFGGGTKLTVLG
notes: IgG4 backbone
B21: 16H7 variant, light chain G23Y (antibody, human IgG4 S228P, lambda, V domains shown)
VH: not shown
VL: SYVLTQPPSVSVAPGQTARITCYGNNIGSESVHWYQQKPGQAPVLVVYDDSDRPSGIPERFSGSNSGNTATLTISRVEAGDEADYYCQVWDGNSDHVVFGGGTKLTVLG
notes: IgG4 backbone
B22: 16H7 variant, light chain D52Y (antibody, human IgG4 S228P, lambda, V domains shown)
VH: not shown
VL: SYVLTQPPSVSVAPGQTARITCGGNNIGSESVHWYQQKPGQAPVLVVYDDSYRPSGIPERFSGSNSGNTATLTISRVEAGDEADYYCQVWDGNSDHVVFGGGTKLTVLG
notes: IgG4 backbone
B23: 16H7 variant, light chain G24H (antibody, human IgG4 S228P, lambda, V domains shown)
VH: not shown
VL: SYVLTQPPSVSVAPGQTARITCGHNNIGSESVHWYQQKPGQAPVLVVYDDSDRPSGIPERFSGSNSGNTATLTISRVEAGDEADYYCQVWDGNSDHVVFGGGTKLTVLG
notes: IgG4 backbone
B24: 16H7 variant, light chain G23L (antibody, human IgG4 S228P, lambda, V domains shown)
VH: not shown
VL: SYVLTQPPSVSVAPGQTARITCLGNNIGSESVHWYQQKPGQAPVLVVYDDSDRPSGIPERFSGSNSGNTATLTISRVEAGDEADYYCQVWDGNSDHVVFGGGTKLTVLG
notes: IgG4 backbone
B25: 16H7 variant, light chain G23I (antibody, human IgG4 S228P, lambda, V domains shown)
VH: not shown
VL: SYVLTQPPSVSVAPGQTARITCIGNNIGSESVHWYQQKPGQAPVLVVYDDSDRPSGIPERFSGSNSGNTATLTISRVEAGDEADYYCQVWDGNSDHVVFGGGTKLTVLG
notes: IgG4 backbone
B26: 16H7 variant, light chain D52S (antibody, human IgG4 S228P, lambda, V domains shown)
VH: not shown
VL: SYVLTQPPSVSVAPGQTARITCGGNNIGSESVHWYQQKPGQAPVLVVYDDSSRPSGIPERFSGSNSGNTATLTISRVEAGDEADYYCQVWDGNSDHVVFGGGTKLTVLG
notes: IgG4 backbone

Key:
[1] = molecular target: human FGFR1c/KLB cell surface receptor complex on iLite FGF21 reporter cells (human, UniProt P11362 22-822; Q86Z14 1-1044); experiment: cell-based or functional assay; for Mean E max (%): reference of the scale not given here
human beta-Klotho (KLB) = molecular target: T1, human beta-Klotho (KLB); experiment: BLI off-rate screen (Octet), Ab captured via Fc;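 note: antibody supernatants applied at 25 µg/mL, dissociation monitored over 1800 s in D-PBS with 0.1% BSA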

Sequence of human FGFR1c/KLB cell surface receptor complex on iLite FGF21 reporter cells (P11362 22-822, chain 1 of 2): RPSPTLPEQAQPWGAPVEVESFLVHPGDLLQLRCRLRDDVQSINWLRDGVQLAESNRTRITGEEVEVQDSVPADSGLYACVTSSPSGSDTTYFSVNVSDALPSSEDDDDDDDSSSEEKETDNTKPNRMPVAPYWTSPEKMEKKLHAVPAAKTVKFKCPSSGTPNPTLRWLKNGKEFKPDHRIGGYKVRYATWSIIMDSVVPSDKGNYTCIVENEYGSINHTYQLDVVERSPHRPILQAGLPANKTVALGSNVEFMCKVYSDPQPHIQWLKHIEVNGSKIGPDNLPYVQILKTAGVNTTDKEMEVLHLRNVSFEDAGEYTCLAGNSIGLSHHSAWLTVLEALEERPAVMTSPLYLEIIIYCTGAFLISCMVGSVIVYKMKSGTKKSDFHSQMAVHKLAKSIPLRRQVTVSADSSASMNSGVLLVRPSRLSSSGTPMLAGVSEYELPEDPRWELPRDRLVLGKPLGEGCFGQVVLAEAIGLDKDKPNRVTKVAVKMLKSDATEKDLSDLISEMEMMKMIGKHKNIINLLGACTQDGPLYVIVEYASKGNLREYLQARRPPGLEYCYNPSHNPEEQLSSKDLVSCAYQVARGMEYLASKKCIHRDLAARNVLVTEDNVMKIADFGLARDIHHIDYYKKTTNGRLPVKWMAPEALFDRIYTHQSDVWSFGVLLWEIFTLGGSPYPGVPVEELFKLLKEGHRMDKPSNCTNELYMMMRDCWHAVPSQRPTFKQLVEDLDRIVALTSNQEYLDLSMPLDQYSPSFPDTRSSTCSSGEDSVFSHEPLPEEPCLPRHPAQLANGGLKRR
Sequence of human FGFR1c/KLB cell surface receptor complex on iLite FGF21 reporter cells (Q86Z14 whole entry, chain 2 of 2): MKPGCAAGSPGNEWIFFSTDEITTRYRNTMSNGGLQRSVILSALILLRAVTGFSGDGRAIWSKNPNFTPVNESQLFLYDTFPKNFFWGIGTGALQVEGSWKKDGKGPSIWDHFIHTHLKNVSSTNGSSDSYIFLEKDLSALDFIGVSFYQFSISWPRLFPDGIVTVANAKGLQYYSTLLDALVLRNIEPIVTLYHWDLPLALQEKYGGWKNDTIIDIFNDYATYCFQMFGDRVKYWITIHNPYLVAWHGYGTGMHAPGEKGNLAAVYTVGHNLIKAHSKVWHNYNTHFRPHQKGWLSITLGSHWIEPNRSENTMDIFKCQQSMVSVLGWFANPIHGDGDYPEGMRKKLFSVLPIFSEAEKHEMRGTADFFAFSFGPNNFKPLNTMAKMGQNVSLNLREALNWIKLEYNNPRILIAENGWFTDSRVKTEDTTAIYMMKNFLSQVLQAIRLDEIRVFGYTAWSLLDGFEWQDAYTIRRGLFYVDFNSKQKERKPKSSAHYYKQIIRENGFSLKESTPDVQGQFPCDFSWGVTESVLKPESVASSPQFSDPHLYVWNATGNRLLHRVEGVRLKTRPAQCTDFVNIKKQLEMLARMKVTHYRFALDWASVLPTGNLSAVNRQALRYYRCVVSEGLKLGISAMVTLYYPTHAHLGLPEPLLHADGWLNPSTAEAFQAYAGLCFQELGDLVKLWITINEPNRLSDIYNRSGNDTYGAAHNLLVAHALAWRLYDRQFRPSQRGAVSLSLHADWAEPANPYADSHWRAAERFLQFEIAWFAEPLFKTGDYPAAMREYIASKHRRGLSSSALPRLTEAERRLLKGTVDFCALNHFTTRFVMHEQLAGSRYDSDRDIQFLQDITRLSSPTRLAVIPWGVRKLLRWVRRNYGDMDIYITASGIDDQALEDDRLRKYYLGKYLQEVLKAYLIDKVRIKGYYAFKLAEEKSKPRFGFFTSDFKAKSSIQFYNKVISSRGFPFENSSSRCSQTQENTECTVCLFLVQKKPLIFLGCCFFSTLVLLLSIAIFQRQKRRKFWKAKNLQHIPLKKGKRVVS

Binder	Mean E max (%) [1] [%]	Mean EC50 [1] [pM]	koff (human beta-Klotho (KLB)) [s⁻¹]
B1	96	91	2.9e-05
B2	95	94	3.6e-05
B3	90	104	3.9e-05
B4	108	104	2.2e-05
B5	107	122	4e-05
B6	95	96	5.2e-06
B7	108	87	4.1e-05
B8	120	143	1e-07
B9	114	125	6.9e-05
B10	103	135	3.1e-05
B11	112	105	1.5e-05
B12	112	118	2.7e-05
B13	91	122	4.1e-05
B14	98	109	5e-05
B15	107	151	2.3e-05
B16	100	109	1.8e-05
B17	93	105	3.9e-05
B18	101	117	3.8e-05
B19	100	138	2.7e-05
B20	104	106	2.2e-05
B21	107	124	4.2e-05
B22	102	110	9.1e-05
B23	99	125	2.7e-05
B24	106	131	9.1e-05
B25	99	128	2.9e-05
B26	108	98	4e-05
